Target: acetylcholine receptor
Test: SPR, AchR immobilized on chip

| Binding affinity (relative to RRQRR) (relative value to the RRQRR sequence) | Binding affinity (relative to RRGVRR) (value relative to the RRGVRR sequence) | Binder | other results |
| --- | --- | --- | --- |
| 105 | – | RRQRRY | – |
| – | 149 | RRGVRRV | – |
| – | 127 | RRGVRRM | – |
| 117 | – | RRQRRT | – |
| – | 117 | SRRGVRR | – |
| – | 43 | ERRGVRR | – |
| – | 134 | RRGVRRW | – |
| – | 134 | ARRGVRR | – |
| 103 | – | TRRQRR | – |
| – | 134 | WRRGVRR | – |
| 113 | – | NRRQRR | – |
| – | 142 | RRGVRRP | – |
| – | 105 | RRGVRRN | – |
| 189 | – | RRRQRR | – |
| 175 | – | RRQRRK | – |
| 130 | – | YRRQRR | – |
| – | 128 | CRRGVRR | – |
| 147 | – | ERRQRR | – |
| 121 | – | SRRQRR | – |
| 138 | – | WRRQRR | – |
| – | 101 | QRRGVRR | – |
| – | 188 | RRGVRRR | – |

| Binding affinity (relative to RRQRR) (relative value to the RRQRR sequence) | Binding affinity (relative to RRGVRR) (value relative to the RRGVRR sequence) | Binder | other results |
| --- | --- | --- | --- |
| 163 | – | DRRQRR | – |
| – | 145 | YRRGVRR | – |
| 109 | – | RRQRRN | – |
| 105 | – | QRRQRR | – |
| 164 | – | HRRQRR | – |
| – | 154 | RRGVRRH | – |
| 113 | – | RRQRRS | – |
| – | 113 | RRGVRRT | – |
| 192 | – | RRQRRR | – |
| – | 105 | TRRGVRR | – |
| – | 137 | GRRGVRR | – |
| – | 169 | KRRGVRR | – |
| – | 33 | RRGVRRE | – |
| – | 146 | RRGVRRL | – |
| 143 | – | FRRQRR | – |
| – | 105 | RRGVRRG | – |
| – | 138 | RRGVRRI | – |
| – | 126 | IRRGVRR | – |
| 129 | – | RRQRRW | – |
| – | 118 | RRGVRRS | – |
| – | 171 | RRGVRRK | – |
| – | 139 | FRRGVRR | – |

| Binding affinity (relative to RRQRR) (relative value to the RRQRR sequence) | Binding affinity (relative to RRGVRR) (value relative to the RRGVRR sequence) | Binder | other results |
| --- | --- | --- | --- |
| 65 | – | RRQRRD | – |
| – | 131 | RRGVRRC | – |
| – | 109 | NRRGVRR | – |
| – | 61 | RRGVRRD | – |
| 132 | – | RRQRRF | – |
| – | – | KSLLR [5mer-ND] | Binding affinity (RU): 23 RU |
| – | 105 | RRGVRRQ | – |
| – | 101 | RRGVRRY | – |
| – | 149 | LRRGVRR | – |
| 173 | – | KRRQRR | – |
| – | 118 | RRGVRRA | – |
| 37 | – | RRQRRE | – |
| – | – | RKSLLR [Spep 6mer] | Binding affinity (RU): 35 RU |
| – | 159 | DRRGVRR | – |
| 101 | – | RRQRRQ | – |
| – | 160 | HRRGVRR | – |
| – | 137 | RRGVRRF | – |
| – | 124 | MRRGVRR | – |
| 158 | – | RRQRRH | – |
| – | 185 | RRRGVRR | – |
| – | 140 | VRRGVRR | – |
| – | 138 | PRRGVRR | – |

— patent US20250011363A1, “OPTIMIZED SHORTENED PEPTIDE THAT BINDS TO ACETYLCHOLINE RECEPTOR, AND USE THEREOF” (SKINMED CO., LTD., priority 2021, published 2025)
